Source: PMC4376459, “CXCR3 antagonist VUF10085 binds to an intrahelical site distinct from that of the broad spectrum antagonist TAK-779” (British Journal of Pharmacology, 2015)
Changes are numbered by the printed parent chain. Each block holds one molecule with its values, some of them ahead of it.

How the values were obtained:
[1] = target: T1, CXCR3 I279A (Homo sapiens, UniProt P49682, I279A); assay: Whole-cell 125I-CXCL11 binding assay, L1.2 transfectants; conditions: I279A versus WT
T1 construct: expressed in transfected cells; host or cells: murine pre-B cell line L1.2, transient transfection
T1 sequence (P49682 1-368 I279A): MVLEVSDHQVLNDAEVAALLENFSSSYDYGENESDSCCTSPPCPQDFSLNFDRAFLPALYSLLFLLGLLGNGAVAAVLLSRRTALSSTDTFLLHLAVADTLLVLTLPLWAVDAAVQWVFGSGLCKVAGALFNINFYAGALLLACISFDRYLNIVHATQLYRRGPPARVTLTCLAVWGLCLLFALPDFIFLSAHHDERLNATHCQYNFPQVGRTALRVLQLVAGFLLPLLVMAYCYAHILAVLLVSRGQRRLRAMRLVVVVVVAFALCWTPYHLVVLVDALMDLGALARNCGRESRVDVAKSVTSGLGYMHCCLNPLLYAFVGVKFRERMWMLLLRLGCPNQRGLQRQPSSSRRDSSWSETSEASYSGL

[2] = target: T2, CXCR3 (Homo sapiens, UniProt P49682); assay: Activity at CXCR3 (data not shown)
T2 sequence (P49682 1-368): T1 sequence (P49682 1-368 I279A) with A279I

[3] = target: T3, CXCL11 (Homo sapiens, UniProt O14625); assay: homologous competition binding with 125I-CXCL11 on L1.2 transfectants
T3 chain: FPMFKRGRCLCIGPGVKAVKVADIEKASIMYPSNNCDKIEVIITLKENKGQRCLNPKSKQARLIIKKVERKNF

decrease in potency, ligand binding [1]: twofold
Molecule: CCOc1ccc(-n2c(C(C)N(Cc3cccnc3)C(=O)Cc3ccc(OC(F)(F)F)cc3)nc3ncccc3c2=O)cc1 (stereo not drawn) [VUF 10085, N-1R-[3-(4-ethoxy-phenyl)-4-oxo-3,4-dihydro-pyrido[2,3-d]pyrimidin-2-yl]-ethyl-N-pyridin-3-ylmethyl-2-(4-trifluoromethoxy-phenyl)-acetamide]

activity at CXCR3 [2]: devoid of activity
Molecule: CCCCOCCOc1ccc(-c2ccc3c(c2)/C=C(/C(=O)Nc2ccc([S@@+]([O-])Cc4cncn4CCC)cc2)CCCN3CC(C)C)cc1 [TAK-652]

Kd [3]: 1.1 nM
B5: CXCR3 (protein)
chain: T1 sequence (P49682 1-368 I279A) with F131A, A279I

Kd [3]: 7.4 nM
B6: CXCR3 (protein)
chain: T1 sequence (P49682 1-368 I279A) with V275A, A279I

Second part, the molecule before the results:

B1: CXCR3 (protein)
chain: T1 sequence (P49682 1-368 I279A) with Y205A, A279I
Kd [3]: 10.4 nM

B2: CXCR3 (protein)
chain: T1 sequence (P49682 1-368 I279A) with A279I
Kd [3]: 7.7 nM

B3: CXCR3 (protein)
chain: T1 sequence (P49682 1-368 I279A) with H202A, A279I
Kd [3]: 2.9 nM

B4: CXCR3 (protein)
chain: T1 sequence (P49682 1-368 I279A) with Y60A, A279I
Kd [3]: 1.8 nM
